Molecular target: T1, CTCF WT (UniProt P49711 1-727)
T1 sequence: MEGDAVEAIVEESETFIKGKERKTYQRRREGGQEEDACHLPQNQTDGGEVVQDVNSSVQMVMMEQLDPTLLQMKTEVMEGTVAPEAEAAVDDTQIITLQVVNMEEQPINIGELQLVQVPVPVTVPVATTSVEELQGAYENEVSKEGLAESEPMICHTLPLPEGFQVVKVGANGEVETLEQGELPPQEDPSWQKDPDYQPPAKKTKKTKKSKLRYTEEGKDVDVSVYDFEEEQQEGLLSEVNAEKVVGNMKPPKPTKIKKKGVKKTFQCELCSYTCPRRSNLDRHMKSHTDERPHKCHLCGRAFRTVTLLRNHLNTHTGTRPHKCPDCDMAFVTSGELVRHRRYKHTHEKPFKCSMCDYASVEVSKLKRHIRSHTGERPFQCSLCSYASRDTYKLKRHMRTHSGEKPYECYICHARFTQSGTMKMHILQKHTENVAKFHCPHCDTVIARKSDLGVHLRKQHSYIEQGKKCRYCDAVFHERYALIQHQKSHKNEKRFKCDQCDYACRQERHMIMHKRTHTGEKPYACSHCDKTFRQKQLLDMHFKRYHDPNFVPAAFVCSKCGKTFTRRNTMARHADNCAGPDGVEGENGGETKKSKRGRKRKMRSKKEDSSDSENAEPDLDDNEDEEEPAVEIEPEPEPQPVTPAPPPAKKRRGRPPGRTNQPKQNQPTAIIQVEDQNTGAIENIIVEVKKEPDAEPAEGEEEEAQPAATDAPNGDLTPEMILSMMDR
Assay: pull-down; TnT lysate protein with bead-bound DNA, 3 h at 4 C; beads washed before and after binding in PIB (250 mM NaCl, 50 mM Tris pH 8.0, 0.25% IGEPAL, EDTA-free protease inhibitor); anti-CTCF Western blot
Conditions: protein: ivt; tags: FLAG (pcDNA3.1-FLAG); label: 5' biotin on S3 strand; blunt

B1: core CTCF binding site probe (dsDNA)
DNA 1: AGGACCAGCAGGGGGCGCA
DNA 2: TGCGCCCCCTGCTGGTCCT
B1: binds.

Source: article PMC8629902, “Structure–function relationships explain CTCF zinc finger mutation phenotypes in cancer”
